Results as given in US20220064329A1 (Novo Nordisk, published 2022).
Changes are numbered by the printed parent chain. Names and notes keep the numbering of the source. Where two headings read alike, the source gives them in different places.

T1: recombinant human activated FVII (FVIIa) (human, UniProt P08709 61-212; P08709 213-466, ten glutamate residues of the Gla domain may be gamma-carboxylated)
T1 construct: Two-chain form after cleavage between Arg152 and Ile153; light and heavy chain tethered by a disulfide bond; also called rFVIIa; Factor VIIa
T1 sequence 1: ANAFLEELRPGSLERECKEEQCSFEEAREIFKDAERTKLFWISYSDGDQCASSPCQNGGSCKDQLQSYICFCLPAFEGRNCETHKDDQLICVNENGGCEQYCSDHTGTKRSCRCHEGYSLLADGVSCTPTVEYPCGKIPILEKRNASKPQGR
T1 sequence 2: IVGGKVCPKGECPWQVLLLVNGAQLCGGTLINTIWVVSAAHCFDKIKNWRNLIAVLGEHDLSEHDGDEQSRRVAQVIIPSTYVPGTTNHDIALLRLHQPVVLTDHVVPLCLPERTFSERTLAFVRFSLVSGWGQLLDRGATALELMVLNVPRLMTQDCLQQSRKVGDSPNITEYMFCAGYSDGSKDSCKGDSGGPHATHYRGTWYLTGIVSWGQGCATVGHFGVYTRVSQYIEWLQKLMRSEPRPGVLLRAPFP

T2: sTLT1 (SEQ ID No: 3 with six histidine residues added at the C-terminus) (human, UniProt Q86YW5 16-162)
T2 construct: Soluble TLT-1 used in SPR
T2 sequence: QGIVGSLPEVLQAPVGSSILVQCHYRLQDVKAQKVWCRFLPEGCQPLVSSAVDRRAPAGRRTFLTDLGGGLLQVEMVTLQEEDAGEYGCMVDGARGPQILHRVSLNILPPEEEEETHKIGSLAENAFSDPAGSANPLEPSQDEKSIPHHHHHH

T3: recombinant human activated Factor VII (FVIIa) (human, UniProt P08709 61-212; P08709 213-466, Gla domain: ten glutamate residues may be gamma-carboxylated)
T3 construct: two-chain form after cleavage between Arg152 and Ile153; light chain (Gla, EGF domains) and heavy chain (protease domain) tethered by a disulfide bond; also called rFVIIa; human FVIIa
T3 sequence 1: T1 sequence 1
T3 sequence 2: T1 sequence 2

B1: biAb0095 (bispecific antibody, human IgG4 S228P, kappa)
heavy 1: QVQLQESGPGLVKPSQTLSLTCTVSGYSISSDSAWSWIRQPPGKGLEWIGYIQYSGSTNYNPSLKSRVTISRDTSKNQFSLKLSSVTAADTAVYYCARSVNYYGNSFAVGYWGQGTLVTVSSASTKGPSVFPLAPCSRSTSESTAALGCLVKDYFPEPVTVSWNSGALTSGVHTFPAVLQSSGLYSLSSVVTVPSSSLGTKTYTCNVDHKPSNTKVDKRVESKYGPPCPPCPAPEFLGGPSVFLFPPKPKDTLMISRTPEVTCVVVDVSQEDPEVQFNWYVDGVEVHNAKTKPREEQFNSTYRVVSVLTVLHQDWLNGKEYKCKVSNKGLPSSIEKTISKAKGQPREPQVYTLPPSQEEMTKNQVSLTCLVKGFYPSDIAVEWESNGQPENNYKTTPPVLDSDGSFLLYSKLTVDKSRWQEGNVFSCSVMHEALHNHYTQKSLSLSLGK
light 1: EIVLTQSPATLSLSPGERATLSCRASQGISDYLHWYQQKPGEAPRLLIKYTSQPATGIPARFSGSGSGTDFTLTISSLEPEDFAVYYCQNGHSFPLTFGQGTKLEIKRTVAAPSVFIFPPSDEQLKSGTASVVCLLNNFYPREAKVQWKVDNALQSGNSQESVTEQDSKDSTYSLSSTLTLSKADYEKHKVYACEVTHQGLSSPVTKSFNRGEC
heavy 2: not shown
light 2: DIVMTQTPLSSPVTLGQPASISCRSSQSLVHRNGNTYFHWLQQRPGQPPRLLIYKVSNRFSGVPDRFSGSGAGTDFTLKISRVEAEDVGVYYCSQSTHVPYTFGQGTKLEIKRTVAAPSVFIFPPSDEQLKSGTASVVCLLNNFYPREAKVQWKVDNALQSGNSQESVTEQDSKDSTYSLSSTLTLSKADYEKHKVYACEVTHQGLSSPVTKSFNRGEC
notes: Duobody, constant domain type H (IgG4): anti-FVII(a) arm mAb0865, anti-TLT-1 arm mAb1047; also called mAb0865 x mAb1047
B2: biAb0099 (bispecific antibody, human IgG4 S228P, kappa)
heavy 1: B1 heavy 1 with Q1D, A108W, G110D, Y111P
light 1: DIVMTQSPATLSVTAGDRVSLSCRASQGISDYLHWYQQKSHESPRLLIKYTSQPVSGIPSRFSGSGSGSEFTLSINSVEPEDVGVYYCQNGHSFPLTFGAGTKLELKRTVAAPSVFIFPPSDEQLKSGTASVVCLLNNFYPREAKVQWKVDNALQSGNSQESVTEQDSKDSTYSLSSTLTLSKADYEKHKVYACEVTHQGLSSPVTKSFNRGEC
heavy 2: not shown
light 2: B1 light 2
notes: Duobody, constant domain type H (IgG4): anti-FVII(a) arm mAb0873, anti-TLT-1 arm mAb1047; also called mAb0873 x mAb1047
B3: biAb0014 (bispecific antibody, human IgG4 S228P, kappa)
heavy 1: B1 heavy 1 with Q1D, A108W, G110D, Y111P
light 1: B2 light 1
heavy 2: not shown
light 2: B1 light 2 with N33Q
notes: also called mAb0873 x mAb1076
B4: biAb0094 (bispecific antibody, human IgG4 S228P, kappa)
heavy 1: B1 heavy 1 with Q1D, A108W, G110D, Y111P
light 1: B2 light 1
heavy 2: not shown
light 2: B1 light 2
notes: Duobody, constant domain type H (IgG4): anti-FVII(a) arm mAb0873, anti-TLT-1 arm mAb1049; also called mAb0873 x mAb1049
B5: biAb0090 (bispecific antibody, human IgG4 S228P, kappa)
heavy 1: B1 heavy 1
light 1: B1 light 1
heavy 2: not shown
light 2: B1 light 2
notes: Duobody, constant domain type H (IgG4): anti-FVII(a) arm mAb0865, anti-TLT-1 arm mAb1049; also called mAb0865 x mAb1049
B6: biAb0001 (bispecific antibody, human IgG4 S228P, kappa)
heavy 1: B1 heavy 1
light 1: B1 light 1
heavy 2: not shown
light 2: B1 light 2 with N33Q
notes: Duobody, constant domain type H (IgG4): anti-FVII(a) arm mAb0865, anti-TLT-1 arm mAb1076; also called anti-FVII(a)/anti-TLT-1 bispecific antibody; mAb0865 x mAb1076
B7: biAb0015 (bispecific antibody, human IgG4 S228P, kappa)
heavy 1: B1 heavy 1
light 1: B1 light 1
heavy 2: not shown
light 2: B1 light 2 with N33P
notes: Duobody, constant domain type H (IgG4): anti-FVII(a) arm mAb0865, anti-TLT-1 arm mAb1038; also called mAb0865 x mAb1038
B8: biAb0019 (bispecific antibody, human IgG4 S228P, kappa)
heavy 1: B1 heavy 1 with Q1D, A108W, G110D, Y111P
light 1: B2 light 1
heavy 2: not shown
light 2: B1 light 2 with N33P
notes: also called mAb0873 x mAb1038
B9: mAb0048 (antibody, human IgG4 S228P, kappa, V domains shown)
VH: DVQLQESGPGLVEPSQSLSLTCTVTGYSITSDCAWSWIRQFPGNKLEWMGYINYSGSTNYNPSLKSRISVTRDTSKNQFFLRLSSVTAEDTATYYCTRSVNYYGNSFAVGYWGQGTSVTVSS
VL: DIVMTQSPATLSVTAGDRVSLSCRASQGISDYLHWYQQKSHESPRLLIKYTSQPVSGIPSRFSGSGSGSEFTLSINSVEPEDVGVYYCQNGHSFPLTFGAGTKLELKR
notes: murine variable domains, human IgG4 S228P constant domain (type A), human kappa; also called 11F2 murine/human chimera

Tests used:
[1] = target: T1, recombinant human activated FVII (FVIIa); assay: dissociation constant listed with the stimulatory activities (SPR)
[2] = target: T2, sTLT1 (SEQ ID No: 3 with six histidine …); assay: as above
[3] = target: T2, sTLT1 (SEQ ID No: 3 with six histidine …); assay: KD (TLT-1) listed for the biAbs of Example 30 (SPR value of Table 21)
Protocol: (§1) Binding of sTLT1 (corresponding to SEQ ID No: 3 with six histidine residues added at the C-terminus) to biAb from (Example 4) was probed by surface plasmon resonance (Biacore T200) at 25° C. Anti-human IgG was immobilised on a CM5 sensor chip (both supplied by GE Healthcare) using standard amine coupling chemistry. Purified biAbs according to Table 21 (1 nM) were injected at a flow rate of 10 μl/min for 1 min. Subsequently, sTLT1, between 0 and 60 μM, were injected at a flow rate of […] for 3 min to allow for binding to the biAb followed by a 3 min buffer injection allowing for dissociation from the biAb. The running buffer was prepared by diluting 10-fold the 10×HBS-P buffer (supplied by GE Healthcare) and supplemented with 1 mg/ml BSA and 5 mM CaCl₂) to give 10 mM HEPES, 150 mM NaCl, 0.05% v/v Polysorbate 20, pH 7.4, 5 mM CaCl₂), 1 mg/ml bovine serum albumin (BSA). The running buffer was also used for dilution of biAb and sTLT1 samples. Regeneration of the chip was achieved using recommended regeneration buffer consisted of 3M MgCl2 (supplied by GE Healthcare). Binding data were analysed according to a 1:1 model using BiaEvaluation 4.1 supplied by the manufacturer (Biacore AB, Uppsala, Sweden).

[4] = target: T2, sTLT1 (SEQ ID No: 3 with six histidine …); assay: SPR, Biacore T200, 25 C; biAb captured on anti-human IgG, sTLT1 injected; 1:1 model
Protocol: as §1

[5] = target: T1, recombinant human activated FVII (FVIIa); assay: cell-based or functional assay
[6] = target: T2, sTLT1 (SEQ ID No: 3 with six histidine …); assay: dissociation constant listed with the stimulatory activities; value of the anti-TLT-1 arm
[7] = target: T1, recombinant human activated FVII (FVIIa); assay: dissociation constant listed with the stimulatory activities; value of the anti-FVII(a) arm mAb0873
[8] = target: T1, recombinant human activated FVII (FVIIa); assay: cell-based or functional assay; remark: listed apart in the source
[9] = target: T3, recombinant human activated Factor VII …; assay: SPR (Biacore T200), captured antibody, FVIIa injected at 5-135 nM, 1:1 model
Protocol: Anti-murine IgG (by GE Healthcare) was immobilised on a CM4 sensor chip using standard amine coupling chemistry kit (both supplied by GE Healthcare). […] The running buffer was prepared by diluting 10-fold the 10×HBS-P buffer (supplied by GE Healthcare) and supplemented with 1 mg/ml BSA and 5 mM CaCl₂) to give 10 mM HEPES, 150 mM NaCl, 0.05% v/v Polysorbate 20(P20), pH 7.4, 5 mM CaCl₂), 1 mg/ml bovine serum albumin (BSA). […] Regeneration of the chip was achieved using regeneration buffer consisting of 10 mM Gly-HCl pH 1.7 (supplied by GE Healthcare). Binding data were analysed according to a 1:1 model using BiaEvaluation 4.1 supplied by the manufacturer (Biacore AB, Uppsala, Sweden).

[10] = target: T3, recombinant human activated Factor VII …; assay: cell-based or functional assay

Binder | Kd [1] [nM] | Kd [2] [nM] | Kd [3] [nM] | Kd [4] [nM] | Stimulation (fold): FXa generated by FVIIa with lipidated TLT-1 and 100 nM biAb, relative to free FVIIa [5] [fold] | Kd [6] [nM] | Kd [7] [nM] | Stimulation (fold): FXa generated by FVIIa with lipidated TLT-1 and 100 nM biAb, relative to free FVIIa [8] [fold] | Kd [9] [nM] | AT inhibition (kinh %) [10] [%]
B1 | 0.06 | 75 | 75 | 75 | 13.9 | – | – | – | – | –
B2 | – | – | – | – | 5.8 | 75 | 600 | – | – | –
B3 | – | – | – | – | 8 | 2.9 | 600 | – | – | –
B4 | – | – | – | – | 5.4 | 320 | 600 | – | – | –
B5 | 0.06 | 320 | 320 | 320 | 11.1 | – | – | – | – | –
B6 | 0.06 | 2.9 | 2.9 | 2.9 | 29.2 | – | – | 29.2 | – | –
B7 | 0.06 | 19 | 19 | 19 | 18.7 | – | – | – | – | –
B8 | – | – | – | – | 9.4 | 19 | 600 | – | – | –
B9 | – | – | – | – | – | – | – | – | 0.029 | 109
